Data published in article PMC6406459, “Hyperoxidation of Peroxiredoxin 6 Induces Alteration from Dimeric to Oligomeric State” (Antioxidants, 2019).

Biological target: the molecule itself
Assay: native gel or EMSA; native PAGE, continuous 7.5% polyacrylamide gel, non-reducing and non-denaturing; samples in 50 mM Tris-HCl, 100 mM NaCl pH 7.4; running buffer 30 mM beta-alanine, 20 mM lactic acid pH 3.8, 180 V, 2 h, reverse polarity; markers bovine albumin and horse ferritin

B1: reduced rat peroxiredoxin 6 (Cys47-SH) (enzyme, UniProt O35244 1-224, looked up)
chain: MPGGLLLGDEAPNFEANTTIGHIRFHDFLGDSWGILFSHPRDFTPVCTTELGRAAKLAPEFAKRNVKLIALSIDSVEDHFAWSKDINAYNGAAPTEKLPFPIIDDKDRDLAILLGMLDPAEKDEKGMPVTARVVFIFGPDKKLKLSILYPATTGRNFDEILRVVDSLQLTASNPVATPVDWKKGESVMVLPTLPEEEAKQLFPKGVFTKELPSGKKYLRYTPQP
notes: Peroxiredoxin 6, rat, UniProtKB O35244, 224 amino acids as in the cDNA, without any vector derived residues; Kept reduced by 1 mM DTT in 50 mM Tris-HCl, 100 mM NaCl pH 7.4; also called reduced Prdx6; rPrdx6; source: reduced with 1 mM DTT; not shown: intein tag, C-terminal, cleaved
With B1 the “stoichiometry N” value was 2.

B2: hyperoxidized rat peroxiredoxin 6 (C47 sulfinic acid or sulfonic acid) (enzyme, UniProt O35244 1-224, looked up)
chain: MPGGLLLGDEAPNFEANTTIGHIRFHDFLGDSWGILFSHPRDFTPVCTTELGRAAKLAPEFAKRNVKLIALSIDSVEDHFAWSKDINAYNGAAPTEKLPFPIIDDKDRDLAILLGMLDPAEKDEKGMPVTARVVFIFGPDKKLKLSILYPATTGRNFDEILRVVDSLQLTASNPVATPVDWKKGESVMVLPTLPEEEAKQLFPKGVFTKELPSGKKYLRYTPQP
modifications: C47 sulfinic acid or sulfonic acid (Cys47-SO2H or Cys47-SO3H)
notes: Peroxiredoxin 6, rat, UniProtKB O35244, 224 amino acids as in the cDNA, without any vector derived residues; Cys47 hyperoxidized by H2O2; Same purified protein as m1, treated with 500 uM H2O2 in 50 mM Tris-HCl, 100 mM NaCl pH 7.4; also called hyperoxidized Prdx6; oxidized Prdx6; source: incubated with 500 uM H2O2 at room temperature for 30 min to 1 h; not shown: intein tag, C-terminal, cleaved
B2: binds.
